Results: patent publication US20250042994A1 (HAINAN SIMCERE ZAIMING PHARMACEUTICAL, published 2025)

T1: murine CD19 protein (murine, UniProt P25918 17-287, limits assumed)
T1 construct: bought protein; also called commercial murine CD19
T1 sequence (looked up): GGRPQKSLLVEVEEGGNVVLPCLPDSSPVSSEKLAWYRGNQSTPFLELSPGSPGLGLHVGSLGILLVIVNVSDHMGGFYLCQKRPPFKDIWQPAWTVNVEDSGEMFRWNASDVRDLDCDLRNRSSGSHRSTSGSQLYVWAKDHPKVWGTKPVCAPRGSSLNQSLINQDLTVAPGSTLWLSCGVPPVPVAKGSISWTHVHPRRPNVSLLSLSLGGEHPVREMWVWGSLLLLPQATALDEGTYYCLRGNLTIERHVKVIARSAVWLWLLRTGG

T2: human CD19 exon1-3-his protein (human, UniProt P15391 20-186, limits assumed)
T2 construct: made in HEK293E cells; also called membrane-distal end; not shown: His tag
T2 sequence (looked up): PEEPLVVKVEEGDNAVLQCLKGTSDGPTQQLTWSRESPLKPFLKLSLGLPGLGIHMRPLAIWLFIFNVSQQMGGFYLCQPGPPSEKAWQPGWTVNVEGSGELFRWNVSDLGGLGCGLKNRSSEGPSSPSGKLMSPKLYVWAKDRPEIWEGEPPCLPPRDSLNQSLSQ

T3: human CD19 exon1-3-His tag protein (human, UniProt P15391 20-186, limits assumed)
T3 construct: membrane-distal part of the extracellular region, made in HEK293E cells; not shown: His tag
T3 sequence (looked up): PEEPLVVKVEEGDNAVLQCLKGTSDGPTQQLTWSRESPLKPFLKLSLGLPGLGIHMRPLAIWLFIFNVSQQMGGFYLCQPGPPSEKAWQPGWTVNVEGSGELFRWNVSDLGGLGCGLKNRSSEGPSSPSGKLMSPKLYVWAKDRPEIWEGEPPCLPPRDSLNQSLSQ

T4: Human CD19-his protein (human, UniProt P15391 20-291)
T4 construct: bought protein; also called recombinant human CD19-His; CD19 full-length protein; not shown: His tag
T4 sequence (looked up): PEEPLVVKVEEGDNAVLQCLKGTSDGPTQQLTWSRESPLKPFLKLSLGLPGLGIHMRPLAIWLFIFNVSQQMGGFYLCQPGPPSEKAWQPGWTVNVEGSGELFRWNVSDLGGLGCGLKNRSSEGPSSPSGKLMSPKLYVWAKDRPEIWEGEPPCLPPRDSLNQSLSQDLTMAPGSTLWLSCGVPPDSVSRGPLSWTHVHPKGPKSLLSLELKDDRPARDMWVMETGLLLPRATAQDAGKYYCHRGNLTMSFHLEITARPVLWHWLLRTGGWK

B1: F3.121.4-L2H3 (antibody, mouse IgG1, kappa)
heavy: EVQLVQSGAEVKKPGASVKVSCKASGYTFTNYWMHWVRQRPGQGLEWMGEIDPSDNYANYNQEFQGRVTITVDKSASTAYMELSSLRSEDTAVYYCARHDGYFGALDYWGQGTTVTVSSAKTTPPSVYPLAPGSAAQTNSMVTLGCLVKGYFPEPVTVTWNSGSLSSGVHTFPAVLQSDLYTLSSSVTVPSSTWPSETVTCNVAHPASSTKVDKKIVPRDCGCKPCICTVPEVSSVFIFPPKPKDVLTITLTPKVTCVVVDISKDDPEVQFSWFVDDVEVHTAQTQPREEQFNSTFRSVSELPIMHQDWLNGKEFKCRVNSAAFPAPIEKTISKTKGRPKAPQVYTIPPPKEQMAKDKVSLTCMITDFFPEDITVEWQWNGQPAENYKNTQPIMDTDGSYFVYSKLNVQKSNWEAGNTFTCSVLHEGLHNHHTEKSLSHSPGK
light: EIVLTQSPDFQSVTPKEKVTITCSASSSISSNYLHWYQQKPDQSPKLLIKRTSNLASGVPSRFSGSGSGTDFTLTINSLEAEDAATYYCQQASSIPRMFTFGQGTKLEIKRADAAPTVSIFPPSSEQLTSGGASVVCFLNNFYPKDINVKWKIDGSERQNGVLNSWTDQDSKDSTYSMSSTLTLTKDEYERHNSYTCEATHKTSTSPIVKSFNRNEC
notes: murine IgG1 constant regions; also called humanized antibody of F3.121.4
B2: F3.121.4-L3H1 (antibody, mouse IgG1, kappa, V domains shown)
VH: EVQLVQSGAEVKKPGASVKVSCKASGYTFTNYWMHWVRQAPGQRLEWMGEIDPSDNYANYNQEFQGRVTITVDKSASTAYMELSSLRSEDTAVYYCARHDGYFGALDYWGQGTTVTVSS
VL: EIVLTQSPDFQSVTPKEKVTITCSASSSISSNYLHWYQQKPDQSPKFLIYRTSNLASGVPSRFSGSGSGTDFTLTINSLEAEDAATYYCQQASSIPRMFTFGQGTKLEIKR
notes: as for B1
B3: F3.121.4-L3H3 (antibody, mouse IgG1, kappa)
heavy: EVQLVQSGAEVKKPGASVKVSCKASGYTFTNYWMHWVRQRPGQGLEWMGEIDPSDNYANYNQEFQGRVTITVDKSASTAYMELSSLRSEDTAVYYCARHDGYFGALDYWGQGTTVTVSSAKTTPPSVYPLAPGSAAQTNSMVTLGCLVKGYFPEPVTVTWNSGSLSSGVHTFPAVLQSDLYTLSSSVTVPSSTWPSETVTCNVAHPASSTKVDKKIVPRDCGCKPCICTVPEVSSVFIFPPKPKDVLTITLTPKVTCVVVDISKDDPEVQFSWFVDDVEVHTAQTQPREEQFNSTFRSVSELPIMHQDWLNGKEFKCRVNSAAFPAPIEKTISKTKGRPKAPQVYTIPPPKEQMAKDKVSLTCMITDFFPEDITVEWQWNGQPAENYKNTQPIMDTDGSYFVYSKLNVQKSNWEAGNTFTCSVLHEGLHNHHTEKSLSHSPGK
light: EIVLTQSPDFQSVTPKEKVTITCSASSSISSNYLHWYQQKPDQSPKFLIYRTSNLASGVPSRFSGSGSGTDFTLTINSLEAEDAATYYCQQASSIPRMFTFGQGTKLEIKRADAAPTVSIFPPSSEQLTSGGASVVCFLNNFYPKDINVKWKIDGSERQNGVLNSWTDQDSKDSTYSMSSTLTLTKDEYERHNSYTCEATHKTSTSPIVKSFNRNEC
notes: as for B1
B4: F3.121.4-L3H4 (antibody, mouse IgG1, kappa)
heavy: EVQLQQSGAEVKKPGASVKVSCKASGYTFTNYWMHWVRQRPGQGLEWMGEIDPSDNYANYNQEFQGRVTITVDKSASTAYMELSSLRSEDTAVYYCARHDGYFGALDYWGQGTTVTVSSAKTTPPSVYPLAPGSAAQTNSMVTLGCLVKGYFPEPVTVTWNSGSLSSGVHTFPAVLQSDLYTLSSSVTVPSSTWPSETVTCNVAHPASSTKVDKKIVPRDCGCKPCICTVPEVSSVFIFPPKPKDVLTITLTPKVTCVVVDISKDDPEVQFSWFVDDVEVHTAQTQPREEQFNSTFRSVSELPIMHQDWLNGKEFKCRVNSAAFPAPIEKTISKTKGRPKAPQVYTIPPPKEQMAKDKVSLTCMITDFFPEDITVEWQWNGQPAENYKNTQPIMDTDGSYFVYSKLNVQKSNWEAGNTFTCSVLHEGLHNHHTEKSLSHSPGK
light: EIVLTQSPDFQSVTPKEKVTITCSASSSISSNYLHWYQQKPDQSPKFLIYRTSNLASGVPSRFSGSGSGTDFTLTINSLEAEDAATYYCQQASSIPRMFTFGQGTKLEIKRADAAPTVSIFPPSSEQLTSGGASVVCFLNNFYPKDINVKWKIDGSERQNGVLNSWTDQDSKDSTYSMSSTLTLTKDEYERHNSYTCEATHKTSTSPIVKSFNRNEC
notes: as for B1
B5: F3.121.4-L3H2 (antibody, mouse IgG1, kappa, V domains shown)
VH: EVQLVQSGAEVKKPGASVKVSCKASGYTFTNYWMHWVRQAPGQGLEWMGEIDPSDNYANYNQEFQGRVTITVDKSASTAYMELSSLRSEDTAVYYCARHDGYFGALDYWGQGTTVTVSS
VL: EIVLTQSPDFQSVTPKEKVTITCSASSSISSNYLHWYQQKPDQSPKFLIYRTSNLASGVPSRFSGSGSGTDFTLTINSLEAEDAATYYCQQASSIPRMFTFGQGTKLEIKR
notes: as for B1
B6: F3.121.4-L2H4 (antibody, mouse IgG1, kappa)
heavy: EVQLQQSGAEVKKPGASVKVSCKASGYTFTNYWMHWVRQRPGQGLEWMGEIDPSDNYANYNQEFQGRVTITVDKSASTAYMELSSLRSEDTAVYYCARHDGYFGALDYWGQGTTVTVSSAKTTPPSVYPLAPGSAAQTNSMVTLGCLVKGYFPEPVTVTWNSGSLSSGVHTFPAVLQSDLYTLSSSVTVPSSTWPSETVTCNVAHPASSTKVDKKIVPRDCGCKPCICTVPEVSSVFIFPPKPKDVLTITLTPKVTCVVVDISKDDPEVQFSWFVDDVEVHTAQTQPREEQFNSTFRSVSELPIMHQDWLNGKEFKCRVNSAAFPAPIEKTISKTKGRPKAPQVYTIPPPKEQMAKDKVSLTCMITDFFPEDITVEWQWNGQPAENYKNTQPIMDTDGSYFVYSKLNVQKSNWEAGNTFTCSVLHEGLHNHHTEKSLSHSPGK
light: EIVLTQSPDFQSVTPKEKVTITCSASSSISSNYLHWYQQKPDQSPKLLIKRTSNLASGVPSRFSGSGSGTDFTLTINSLEAEDAATYYCQQASSIPRMFTFGQGTKLEIKRADAAPTVSIFPPSSEQLTSGGASVVCFLNNFYPKDINVKWKIDGSERQNGVLNSWTDQDSKDSTYSMSSTLTLTKDEYERHNSYTCEATHKTSTSPIVKSFNRNEC
notes: as for B1
B7: F3.118.14 (antibody, human IgG1, V domains shown)
VH: QVQLQQSGAELVRPGASVTLSCKASGYTFPDYEIHWVKQTPVHGLEWIGAIDPETGGIGYNQKFTGKAMLTADKSSSTAYMELRSLTSEDSAVYFCTRNYGSRWGQGSTLTVSS
VL: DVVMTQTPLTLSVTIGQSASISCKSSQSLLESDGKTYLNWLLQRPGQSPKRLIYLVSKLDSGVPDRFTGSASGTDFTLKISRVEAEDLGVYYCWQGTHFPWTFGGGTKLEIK
notes: human-murine chimeric antibody, human IgG1 constant

How the values were obtained:
murine CD19 protein = biological target: T1, murine CD19 protein; experiment: ELISA
Description: Human CD19-his protein (purchased from ACROBiosystems, catalog number: CD9-H52H2) was diluted with PBS to a final concentration of 4 μg/mL, and then added to a 96-well ELISA plate at 100 μl/well. The plate was sealed with a plastic film and incubated overnight at 4° C., the plate was washed 2 times with PBS the next day, and then a blocking solution [PBS+2% (w/w) BSA] was added for blocking at room temperature for 2 h. The blocking solution was poured off, and 100 nM gradiently diluted CD19 chimeric antibody or control antibody was added at 50 μl/well. After incubation at 37° C. for 2 h, the plate was washed 3 times with PBS. […] TMB substrate was added at 50 μl/well, and incubated at room temperature for 10 min, and then a stop solution (1.0 N HCl) was added at 50 μl/well. The OD450 nm values were read by an ELISA microplate reader (Multimode Plate Reader, EnSight, purchased from Perkin Elmer).
In order to detect the species cross-binding activity of the chimeric antibodies, an ELISA plate was coated with commercial murine CD19 (ACROBiosystems, catalog number: 50510-M08H) and monkey CD19 (ACROBiosystems, catalog number: 90051-C08H), respectively, and the ELISA detection was performed according to the method in example 5.1. […]

[1] = biological target: T2, human CD19 exon1-3-his protein; experiment: ELISA, coated at 2 ug/mL
[2] = biological target: T3, human CD19 exon1-3-His tag protein; experiment: ELISA on coated human CD19 exon 1-3-His
Human CD19-his protein = biological target: T4, Human CD19-his protein; experiment: SPR Biacore, Ab captured on Protein A, CD19-His analyte
Summary of the method: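 Apparent KD came from a Langmuir 1:1 fit of double-referenced sensorgrams. Recombinant human CD19-His analyte (top 200 nM, 1:1 serial dilution, 5 concentrations) flowed over Protein A-captured antibody for 240 s at 30 μl/min, then buffer for up to 600 s. Running buffer HBS-EP+ at 25 °C; regeneration with 10 mM glycine pH 1.5.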

monkey CD19-His protein = biological target: T5, monkey CD19-His protein (monkey); experiment: SPR Biacore, method of example 7.1, monkey CD19-His
T5 construct: bought protein; also called monkey CD19 protein
Description: A sample buffer and a running buffer were HBS-EP+ (10 mM HEPES, 150 mM NaCl, 3 mM EDTA and 0.05% surfactant P20) (GE Healthcare; BR-1006-69). The flow-through cell was set to 25° C. The sample block was set to 16° C. Both were pretreated with the running buffer. In each cycle, an antibody to be detected was first captured with a Protein A chip, and then a single concentration of CD19 antigen protein was injected. The binding and dissociation processes of the antibody and the antigen protein were recorded, and finally Glycine pH 1.5 (GE Healthcare; BR-1003-54) was used to complete chip regeneration. The binding was measured by injecting different concentrations of recombinant human CD19-His proteins in a solution for 240 s with a flow rate of 30 μl/min. The concentration started from 200 nM (see the detailed results for the actual concentration in the test) and was diluted at 1:1, making a total of 5 concentrations. The dissociation phase was monitored for up to 600 s and was triggered by switching from sample solution to running buffer. The surface was regenerated by washing with a 10 mM glycine solution (pH 1.5) for 30 s at a flow rate of 30 μl/min. Bulk refractive index difference was corrected by subtracting the response obtained from the goat anti-human Fc surface. Blank injection was also subtracted (=double reference). For calculation of apparent KD and other kinetic parameters, Langmuir 1:1 model was used.
According to the method in example 7.1, the affinity of the chimeric antibodies to monkey CD19 (ACROBiosystems, catalog number: 90051-C08H) protein was determined.

Binder	binding result (murine CD19 protein)	binding result [1]	also measured
B1	no binding	no binding	–
B2	no binding	no binding	–
B3	no binding	no binding	–
B4	no binding	no binding	–
B5	no binding	no binding	–
B6	no binding	no binding	–
B7	–	–	EC50 (read off the curve) [2]: ~0.3 nM; Kd (Human CD19-his protein): 6.05 nM; koff (Human CD19-his protein): 0.000326 s⁻¹; kon (Human CD19-his protein): 53900 M⁻¹ s⁻¹; Kd (monkey CD19-His protein): 0.00583 nM; koff (monkey CD19-His protein): 9.72e-08 s⁻¹; kon (monkey CD19-His protein): 16700 M⁻¹ s⁻¹
